This test deals with SARS-CoV-2 Omicron BA.1 Spike receptor-binding domain (SARS-CoV-2 Omicron BA.1). Nature of the test: BLI; RBD1 with hACE2, 'with the same assay condition' as Nb4 with RBD1. (In general: Biolayer interferometry detects binding as a change in optical thickness at a sensor tip.)

Sequence of angiotensin-converting enzyme 2, extracellular (Q9BYF1 20-615): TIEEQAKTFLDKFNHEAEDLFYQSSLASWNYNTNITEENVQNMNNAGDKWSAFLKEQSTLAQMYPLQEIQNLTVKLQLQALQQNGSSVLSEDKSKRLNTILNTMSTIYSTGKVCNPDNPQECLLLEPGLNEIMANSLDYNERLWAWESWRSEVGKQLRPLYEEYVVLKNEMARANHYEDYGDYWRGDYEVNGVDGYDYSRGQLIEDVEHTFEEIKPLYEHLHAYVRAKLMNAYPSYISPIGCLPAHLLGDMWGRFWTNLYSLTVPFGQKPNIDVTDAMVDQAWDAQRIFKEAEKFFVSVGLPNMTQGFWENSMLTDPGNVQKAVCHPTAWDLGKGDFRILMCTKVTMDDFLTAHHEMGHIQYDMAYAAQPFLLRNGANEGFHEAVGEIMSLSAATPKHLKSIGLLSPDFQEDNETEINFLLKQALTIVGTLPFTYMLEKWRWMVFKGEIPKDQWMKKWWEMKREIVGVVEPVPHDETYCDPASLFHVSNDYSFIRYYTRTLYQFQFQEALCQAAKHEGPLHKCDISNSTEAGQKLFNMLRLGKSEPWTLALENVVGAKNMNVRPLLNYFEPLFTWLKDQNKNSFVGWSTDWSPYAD

With “angiotensin-converting enzyme 2, extracellular (from UniProt Q9BYF1 20-615) (receptor)”, the Kd was found to be 9 nM.

What is called Kd is the constant that tells how readily two partners part at equilibrium. A lower Kd goes with tighter binding.

For the origin of these results see article PMC10600506.
